Data reported in the supplement of paper PMC9732359.
± gives the uncertainty stated by the source.

Assay: protein stability index of a GFP-peptide fusion (yeast GPS) (PSI 1-4); higher = more stable; sorted into four equal gates, so the index is relative within each strain
In short: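 The protein stability index combines read frequencies across sorting gates, each weighted by its gate number and then summed. To obtain those frequencies, a pooled yeast library of GFP fusions to tiled 17-residue yeast protein peptides, on a plasmid also expressing Cherry, was grown to mid-log phase in leucine-free medium. The cells were sorted into four equal gates by GFP/Cherry ratio before plasmid amplification by PCR and Illumina sequencing.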

Sequence	protein stability index (doa10∆)	protein stability index (pdr5∆)	protein stability index (san1∆)	protein stability index (ubr1∆)
HQGTPLGSHSSSQKDGN [REC8]	3.21 ± 0.094	3.29 ± 0.093	2.88 ± 0.13	3.35 ± 0.089
HKSGKLSVKIGNVVMDI [RPC53]	1.53 ± 0.1	1.25 ± 0.073	1.07 ± 0.2	–
ITSIMDDLALPYQHPPN [ITC1]	3.17 ± 0.084	3.34 ± 0.076	3.08 ± 0.078	3.22 ± 0.048
LKTFNGSLALLKLSMAD [POP4]	2.33 ± 0.046	2.33 ± 0.067	2.45 ± 0.063	2.36 ± 0.036
LHGNAKKAAEEAGVTDV [FAS2]	3.42 ± 0.12	3.18 ± 0.12	3.13 ± 0.12	3.34 ± 0.15
DILLCYQKLFSQFINDH [SRB8]	2.37 ± 0.034	2.64 ± 0.037	2.64 ± 0.042	1.84 ± 0.034
HIPRLIPKQLLDDEKIF [YJL039C/NUP192]	1.44 ± 0.18	1.54 ± 0.088	1.87 ± 0.19	1.31 ± 0.08
VVRNMLALTTLSEPLIK [YCG1]	1.87 ± 0.07	1.6 ± 0.059	1.4 ± 0.11	1.66 ± 0.061
AAPLLALLRENQDSVKT [RPN2]	2.55 ± 0.18	3.23 ± 0.1	3 ± 0.15	2.6 ± 0.11
TFDGKPTATPSPFRPLE [YMR153W/NUP53]	3.02 ± 0.086	2.15 ± 0.087	2.38 ± 0.12	2.58 ± 0.071
KSFYSTATGAASKSGKL [CYT1]	2.74 ± 0.091	2.62 ± 0.1	2.87 ± 0.079	2.75 ± 0.059
RFQKCFPPGVIGIDEGS [RPC40]	2.15 ± 0.11	2.15 ± 0.22	–	2.43 ± 0.18
DDYDYVMYGTAYKFEEV [RPB8]	2.55 ± 0.041	2.89 ± 0.048	2.95 ± 0.055	2.72 ± 0.051
DSEDEDSMKDTTDMISV [YML031W/NDC1]	3.17 ± 0.17	–	3.2 ± 0.11	2.98 ± 0.21
KSMSILNSFVNDIFERI [HTB1]	2.73 ± 0.1	3.18 ± 0.13	2.47 ± 0.2	2.94 ± 0.062
PLNVLQDQYKEGIKVVD [SNF2]	–	2.46 ± 0.11	1.78 ± 0.092	2.62 ± 0.093
STANPNIKLLNNRMGSY [POP1]	3.01 ± 0.086	3.16 ± 0.083	2.56 ± 0.088	3.04 ± 0.052
NARMPGMPNMPGMPNMP [SRP54]	3.34 ± 0.11	3.25 ± 0.085	3.09 ± 0.062	2.94 ± 0.071
DRRKARKAYFTAPSSQR [RPL26A]	2.59 ± 0.069	2.49 ± 0.091	2.76 ± 0.057	2.59 ± 0.068
VKRYRLAPTQLSAEYLV [SIN4]	2.44 ± 0.062	2.23 ± 0.056	2.3 ± 0.067	2.71 ± 0.043
ADKSLPSSMATLLKNLR [YJR042W/NUP85]	2.97 ± 0.081	2.81 ± 0.077	2.87 ± 0.054	2.86 ± 0.057
TAPANTTDANGSKENYQ [MED2]	2.08 ± 0.066	2.06 ± 0.058	3.02 ± 0.047	2.86 ± 0.066
YKDSLALINDLLREFKK [RPN6]	–	2.42 ± 0.22	1.86 ± 0.22	3.21 ± 0.23
NNDLESVSMLLQYYILE [RRI2]	2.94 ± 0.047	3.16 ± 0.049	3.16 ± 0.034	3.122 ± 0.031
GIFLHGKIPTLKISLIQ [PRP8]	2.26 ± 0.042	2.03 ± 0.035	1.79 ± 0.053	1.78 ± 0.029
GNVLINDTLPDEISPEL [SNU114]	2.99 ± 0.089	2.77 ± 0.097	3.32 ± 0.081	2.71 ± 0.17

Sequence	protein stability index (doa10∆)	protein stability index (pdr5∆)	protein stability index (san1∆)	protein stability index (ubr1∆)
EGPKKCIQVNCLNCEKS [SNM1]	2.62 ± 0.079	2.04 ± 0.058	2.8 ± 0.073	2.22 ± 0.049
SNETIGEIQLLFQRQKL [IRR1]	2.61 ± 0.22	2.8 ± 0.17	3.14 ± 0.14	–
YGITHGLTNWAAAYATG [RPL5]	2.17 ± 0.086	2.43 ± 0.067	2.28 ± 0.09	2.26 ± 0.056
NTEEVNRLEKEQSVKTQ [LIN1]	2.21 ± 0.2	–	–	1.74 ± 0.27
VKWVHMIIDEGHRMKNA [SNF2]	1.81 ± 0.12	1.91 ± 0.075	1.77 ± 0.13	3.11 ± 0.2
PMYKELWINYIKELLNI [POP4]	1.67 ± 0.19	1.08 ± 0.11	–	–
KHAEFDLSLLGYCDDIA [SIR2]	3 ± 0.088	2.68 ± 0.066	2.99 ± 0.056	2.32 ± 0.063
LQWHAMIELICSSATVP [AAR2]	1.55 ± 0.084	1.69 ± 0.073	1.59 ± 0.11	1.75 ± 0.057
DPELLRSYIFGGHVSQY [RPL5]	3.16 ± 0.083	3.58 ± 0.13	3.33 ± 0.056	3.17 ± 0.14
DYKTAFSYFFESFESYH [RPN6]	2.37 ± 0.058	2.77 ± 0.065	2.59 ± 0.067	2.55 ± 0.033
PTDDKTLKPTFSFTEPA [YOR098C/NUP1]	3.14 ± 0.088	2.65 ± 0.089	2.91 ± 0.072	3.07 ± 0.042
IVISLKNTMFEKSDALV [SMC1]	2.42 ± 0.071	2.36 ± 0.062	2.55 ± 0.059	2.47 ± 0.042
SEVLVDTLDSKSNGSSD [ISW2]	3.07 ± 0.07	3.15 ± 0.066	3.11 ± 0.054	3.04 ± 0.058
VRPSISFNESQRGEDDL [RPO21]	2.49 ± 0.078	2.81 ± 0.088	2.75 ± 0.093	2.68 ± 0.083
GGKSVGFGLVYNSVAEA [RPS24A]	3.11 ± 0.052	3.29 ± 0.05	3.15 ± 0.035	2.84 ± 0.054
TGIFMAMHYSSNIELAF [COB]	1.3 ± 0.065	1.51 ± 0.063	1.24 ± 0.12	1.5 ± 0.078
PNIRTMSGTTKRLNGKR [SSN2]	2.24 ± 0.23	2.74 ± 0.22	2.39 ± 0.17	3.46 ± 0.11
DITVHGEQIIVHPVNER [RRP45]	2.23 ± 0.078	2.15 ± 0.1	1.82 ± 0.14	1.9 ± 0.083
YACISSRPGQSGRCDGY [RPS8A]	3.02 ± 0.1	3.21 ± 0.12	3.35 ± 0.097	3.28 ± 0.046
GRDKHALSLLYHLLNYD [SSN3]	2.91 ± 0.074	2.92 ± 0.057	2.94 ± 0.054	3.04 ± 0.064
GREGIWSKTIKARTNLH [RPC34]	1.46 ± 0.12	1.58 ± 0.2	–	1.51 ± 0.29
ALGMMTRISSQFEKSRK [RET1]	1.39 ± 0.066	1.27 ± 0.09	1.37 ± 0.17	1.08 ± 0.06
IKVEGAVGNLGNAVTVT [RPL22A]	3.39 ± 0.14	3.18 ± 0.13	3.15 ± 0.083	3.06 ± 0.079
PKYRDNLATWYHSAGGR [SSN3]	2.95 ± 0.066	3.28 ± 0.08	3.1 ± 0.059	2.99 ± 0.059
FLPKLNSVRNSLLLAHF [NUT1]	2.15 ± 0.04	1.5 ± 0.046	1.65 ± 0.07	1.81 ± 0.029
QRTATLCLEKLMCLSSK [YCS4]	1.6 ± 0.049	2.29 ± 0.075	2.49 ± 0.11	1.78 ± 0.057
